Measured values taken from article PMC12148503, “Molecular Basis of Interchain Disulfide Bond Formation in BMP-9 and BMP-10” (Journal of molecular biology, 2025).
Each block holds one molecule with its values, some of them ahead of it.

What was measured:
[1] = molecular target: BMP-9 disulfide-linked dimer (wild-type growth factor) (human) (UniProt Q9UK05)
[2] = molecular target: BMP-9 monomer (cysteinylated BMP-9 growth factor) (human) (UniProt Q9UK05)
[3] = molecular target: T1, Pro-(X)-BMP-10 R353K, O95393; experiment: SDS-PAGE densitometry; conditions: chain shown with the change; IMAC column purified Pro-BMP-10
T1 chain: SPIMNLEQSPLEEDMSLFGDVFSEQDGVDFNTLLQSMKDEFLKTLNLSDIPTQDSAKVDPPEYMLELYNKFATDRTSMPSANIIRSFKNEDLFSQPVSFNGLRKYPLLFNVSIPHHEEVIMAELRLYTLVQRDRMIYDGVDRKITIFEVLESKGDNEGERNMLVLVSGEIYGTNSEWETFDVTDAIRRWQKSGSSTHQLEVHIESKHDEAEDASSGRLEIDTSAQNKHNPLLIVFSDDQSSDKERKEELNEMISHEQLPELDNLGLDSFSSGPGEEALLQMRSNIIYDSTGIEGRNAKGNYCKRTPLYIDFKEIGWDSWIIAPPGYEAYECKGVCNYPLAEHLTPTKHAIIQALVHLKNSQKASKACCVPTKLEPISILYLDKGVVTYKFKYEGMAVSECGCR

[4] = molecular target: BMP-10 monomer (cysteinylated BMP-10 growth factor) (human) (UniProt O95393)
[5] = molecular target: BMP-10 disulfide-linked dimer (growth factor) (human) (UniProt O95393)

Molecule: BMP-9 disulfide-linked dimer (wild-type growth factor) (from UniProt Q9UK05 320-429) (ligand)
- EC50 of pSMAD1/5/9 (western blot) in serum-starved HUVECs treated for 45 min with BMP-9 disulfide-linked dimer, 0.001-1.62 ng/mL [1]: 3.3 pM

B2: BMP-10 monomer (cysteinylated BMP-10 growth factor) (ligand)
chain: NAKGNYCKRTPLYIDFKEIGWDSWIIAPPGYEAYECRGVCNYPLAEHLTPTKHAIIQALVHLKNSQKASKACCVPTKLEPISILYLDKGVVTYKFKYEGMAVSECGCR
modifications: cysteinylated (+119 Da; the paper places it on the interchain cysteine)
- EC50 of pSMAD1/5/9 (western blot) in serum-starved HUVECs treated for 45 min with BMP-10 monomer, 0.01-54 ng/mL [4]: 164 pM

B3: BMP-10 disulfide-linked dimer (growth factor) (ligand)
chain: B2 chain
modifications: interchain disulfide
- EC50 of pSMAD1/5/9 (western blot) in serum-starved HUVECs treated for 45 min with BMP-10 disulfide-linked dimer, 0.001-1.62 ng/mL [5]: 5.9 pM

Next, values leading:

- EC50 of pSMAD1/5/9 (western blot) in serum-starved HUVECs treated for 45 min with BMP-9 monomer, 0.01-54 ng/mL [2]: 124 pM
Molecule: BMP-9 monomer (cysteinylated BMP-9 growth factor) (from UniProt Q9UK05 320-429) (ligand)

- other: disulfide-linked dimer over monomer ratio [3]: 0.9
B1: Pro-(X)-BMP-10, O95393 R353K (protein)
chain: T1 chain
